Test results as given in article PMC4230587.

Target: RSA-2 (C. elegans (endogenous in embryos)) (UniProt G5EFV3)
Experiment: co-IP

Sequence of UniProt G5EFV3 (G5EFV3 whole entry): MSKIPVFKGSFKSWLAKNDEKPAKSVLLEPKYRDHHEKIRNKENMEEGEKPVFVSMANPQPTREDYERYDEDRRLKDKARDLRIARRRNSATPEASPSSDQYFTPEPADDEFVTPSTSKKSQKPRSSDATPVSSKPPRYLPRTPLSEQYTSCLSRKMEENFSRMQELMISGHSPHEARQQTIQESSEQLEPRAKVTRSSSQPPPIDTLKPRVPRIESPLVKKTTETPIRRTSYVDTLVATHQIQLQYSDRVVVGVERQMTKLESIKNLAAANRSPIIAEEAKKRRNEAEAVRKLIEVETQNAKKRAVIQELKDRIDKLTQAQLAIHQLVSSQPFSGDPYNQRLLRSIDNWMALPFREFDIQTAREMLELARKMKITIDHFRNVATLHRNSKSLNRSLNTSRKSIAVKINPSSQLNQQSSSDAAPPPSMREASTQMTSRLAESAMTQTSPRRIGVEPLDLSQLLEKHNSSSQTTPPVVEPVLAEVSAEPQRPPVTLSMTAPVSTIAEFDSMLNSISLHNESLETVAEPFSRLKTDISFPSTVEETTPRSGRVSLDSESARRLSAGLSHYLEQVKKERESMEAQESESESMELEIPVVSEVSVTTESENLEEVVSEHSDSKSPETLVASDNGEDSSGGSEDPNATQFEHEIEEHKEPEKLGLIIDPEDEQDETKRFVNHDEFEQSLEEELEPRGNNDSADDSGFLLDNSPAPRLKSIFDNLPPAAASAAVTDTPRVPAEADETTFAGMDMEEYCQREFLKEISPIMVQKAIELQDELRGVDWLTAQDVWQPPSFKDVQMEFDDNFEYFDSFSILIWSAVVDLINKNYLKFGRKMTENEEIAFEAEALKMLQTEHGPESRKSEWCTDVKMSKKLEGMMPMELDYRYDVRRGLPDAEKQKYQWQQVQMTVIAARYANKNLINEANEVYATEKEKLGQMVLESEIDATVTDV

Substance: SPD-5 (from UniProt P91349 1-1198) (natural protein)
- percent of total protein co-immunoprecipitated: 20%
